Results from PMC4954732.

Legend:
[1] = molecular target: T1, SrbA bHLHZ (Aspergillus fumigatus) (UniProt Q4WIN1); experiment: SPR; settings: SPR on immobilised biotinylated duplexes, 1:1 model with mass transport; buffer, salt, pH and temperature not stated (protocols of refs 19, 54)
T1 sequence: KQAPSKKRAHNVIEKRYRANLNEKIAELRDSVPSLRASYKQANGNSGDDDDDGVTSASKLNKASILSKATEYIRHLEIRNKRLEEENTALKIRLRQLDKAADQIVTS

[2] = system: CBC (HapB/HapC/HapE) (Aspergillus fumigatus); experiment: SPR; settings: SPR on immobilised biotinylated duplexes, 1:1 model with mass transport; buffer, salt, pH and temperature not stated (protocols of refs 19, 54)

Sequence | Kd [1] [nM] | also measured
AGAATCACGCGGTCCG (double strand) [SRE1 (cyp51Ap-320-16)] | 22.8 | –
CGGCTCAGCACACATC (double strand) [SRE2 (cyp51Ap-295-16)] | 273 | –
GCTGAGCCGAATGAAAGTTGCCTAATTACTAAGGTGT (double strand) [cyp51A-293] | – | Kd [2]: 74.4 nM
GCTGAGCCGAATGAATCACGCGGTCCGGATGTGTGCT (double strand) [cyp51A-TR34] | – | fold decrease in affinity (fold lower affinity than cyp51A-293) [2]: 8
